Reference: patent US20130123350, “NUCLEIC ACID MOLECULE CAPABLE OF BINDING TO c-MET AND USE THEREOF” (KANAGAWA PREFECTURAL HOSPITAL ORGANIZATION, published 2013)

How the values were obtained:
[1] = target: T1, rec-cMet (Recombinant Human HGF R/c-MET/Fc Chimera) (Homo sapiens, UniProt P08581;P08581 SEQ:1-283,SEQ:1-625); assay: SPR; rec-cMet 175 nM; also ELISA signal above g1 (FIG. 7); details: tags: C-terminal HIEGRMD linker, human IgG Fc (100-330), 6xHis; R&D Systems; chain copies: 2 (inferred, Fc chimera)
Experimental: (§1) Using these truncated RNA aptamers, the binding ability thereof to the rec-cMet was examined. The binding ability was analyzed using BIACORE (registered trademark) X (GE Healthcare) in accordance with its instructions for use, with the concentration of the rec-cMet being set to 175 nmol/L. Also, the binding ability of each of the RNA aptamers g1 and g1-trA was examined in the same manner. As a comparative example, the 40N was used, and the binding ability thereof was examined in the same manner.

[2] = target: T1, rec-cMet (Recombinant Human HGF …); assay: SPR; excellent binding; rec-cMet 60 nM; details: tags: C-terminal HIEGRMD linker, human IgG Fc (100-330), 6xHis; R&D Systems; chain copies: 2 (inferred, Fc chimera)
Description: (§2) The binding ability of each of the RNA aptamers to the rec-cMet was examined in the same manner as in Example 5, except that the fluorinated RNA aptamers were used. The concentration of the rec-cMet was set to 60 nmol/L. With the time point at which the introduction of the rec-cMet to the chip was started being 0 seconds, introduction of a buffer was started 60 seconds later. As a comparative example, the same negative control as in Example 6 was used.
(§3) FIG. 12 is a graph showing the binding ability of each of the RNA aptamers to the rec-cMet. In FIG. 12, the vertical axis indicates the signal intensity (RU) measured with BIACORE (registered trademark) X. The signal intensity shown in the graph is a value measured at the 60th second when the buffer was introduced. […] By fluorination, these RNA aptamers had acquired RNase resistance and they also maintained the bonding force to the c-Met. Thus, it can be seen that these fluorinated RNA aptamers are particularly suitable for use in vivo and in vitro. All the RNA aptamers maintained equivalent signal values subsequent to the 60th second. Thus, it was confirmed that no decrease in binding ability occurred.

[3] = target: rec-NGFR (Recombinant Human NGF R/TNFRSF16/Fc Chimera) (Homo sapiens, UniProt P08138 SEQ:1-222); assay: ELONA; signal below 40N; details: tags: C-terminal DIEGRMD linker, human IgG Fc (100-330), 6xHis; R&D Systems; chain copies: 2 (inferred, Fc chimera)
Experimental: (§4) Next, a 20-mer polyadenine (poly A) was added to the 3′ end of each of the RNA aptamers. Thus, poly-A-added RNA aptamers were prepared. Each of the poly-A-added RNA aptamers was denatured, and thereafter, the denatured poly-A-added RNA aptamer was mixed with a 20-mer biotinylated polythymine with its 5′ end being biotinylated (740 nmol/L), tRNA (100 μg/mL), and an RNase inhibitor (0.16 units/mL). As a result, complementary binding occurred between the poly A in the poly-A-added RNA aptamer and the polythymine (poly T) in the biotinylated polythymine, whereby a biotin-labeled RNA aptamer was produced. The biotin-labeled RNA aptamer was added to the plate, and the plate was incubated at 4° C. for 30 minutes. Subsequently, the plate was washed, and 0.1 μg/mL HRP-streptavidin (Thermo Fisher Scientific Inc., USA) was added thereto. The plate was then washed, after which a 1-Step Ultra TMB substrate (Thermo Fisher Scientific Inc., USA) was added to the plate to cause color development, and the absorbance at 450 nm was measured.
The binding ability of each of the RNA aptamers to the rec-NGFR was examined in the same manner as in Example 1, except that the rec-NGFR was bound to the plate. Also, as a comparative example, the 40N was used, and the binding ability thereof was examined in the same manner.

[4] = target: T1, rec-cMet (Recombinant Human HGF …); assay: ELONA; Table 2 misnumbers as SEQ 48; also SPR FIG. 11; details: tags: C-terminal HIEGRMD linker, human IgG Fc (100-330), 6xHis; R&D Systems; chain copies: 2 (inferred, Fc chimera)
Experimental: (§5) An anti-IgG antibody (trade name: “Human IgG-Fc Antibody”, Bethyl Laboratories) was adsorbed on a 96-well plate (Iwaki, AGC Techno Glass Co., Ltd., Japan), and then was subjected to blocking using 1% bovine serum albumin. Subsequently, 50 μL of the 1 μg/mL rec-cMet was added to the plate. Further, Tris (20 mmol/L), sodium chloride (100 mmol/L), magnesium acetate (0.1 mmol/L) and Triton (registered trademark)-X100 (0.2%) were added to the plate so that their final concentrations would be as shown in the parentheses. The plate was incubated at room temperature for 3 hours, thus causing the rec-cMet to bind to the plate. After the incubation, the plate was washed three times with a washing solution. The composition of the washing solution was as follows: 20 mmol/L Tris, 100 mmol/L sodium chloride, 0.1 mmol/L magnesium acetate, and 0.2% Triton (registered trademark)-X100. As a control, incubation and washing were carried out in the same manner, except that 50 μL of the washing solution was added instead of 50 μL of the rec-cMet.
(§6) Next, a 20-mer polyadenine (poly A) was added to the 3′ end of each of the RNA aptamers. Thus, poly-A-added RNA aptamers were prepared. […] The plate was then washed, after which a 1-Step Ultra TMB substrate (Thermo Fisher Scientific Inc., USA) was added to the plate to cause color development, and the absorbance at 450 nm was measured.

[5] = target: T1, rec-cMet (Recombinant Human HGF …); assay: SPR; rec-cMet 175 nM; details: tags: C-terminal HIEGRMD linker, human IgG Fc (100-330), 6xHis; R&D Systems; chain copies: 2 (inferred, Fc chimera)
Experimental: as §1

[6] = target: T1, rec-cMet (Recombinant Human HGF …); assay: ELONA; 3' polyA20/biotin-polyT; also SPR FIG. 11; details: tags: C-terminal HIEGRMD linker, human IgG Fc (100-330), 6xHis; R&D Systems; chain copies: 2 (inferred, Fc chimera)
Experimental: as §5, §4

[7] = target: T1, rec-cMet (Recombinant Human HGF …); assay: ELONA; high binding; Table 2 misnumbers as SEQ 45; also SPR FIG. 11; details: tags: C-terminal HIEGRMD linker, human IgG Fc (100-330), 6xHis; R&D Systems; chain copies: 2 (inferred, Fc chimera)
Experimental: as §5, §6

[8] = target: T1, rec-cMet (Recombinant Human HGF …); assay: ELONA; high binding; 3' polyA20/biotin-polyT; also SPR FIG. 11; details: tags: C-terminal HIEGRMD linker, human IgG Fc (100-330), 6xHis; R&D Systems; chain copies: 2 (inferred, Fc chimera)
Experimental: as §5, §6

[9] = target: T1, rec-cMet (Recombinant Human HGF …); assay: ELONA; highest binding; Table 2 misnumbers as SEQ 46; also SPR FIG. 11; details: tags: C-terminal HIEGRMD linker, human IgG Fc (100-330), 6xHis; R&D Systems; chain copies: 2 (inferred, Fc chimera)
Experimental: as §5, §6

[10] = target: T1, rec-cMet (Recombinant Human HGF …); assay: SPR; best fluorinated binder; rec-cMet 60 nM; details: tags: C-terminal HIEGRMD linker, human IgG Fc (100-330), 6xHis; R&D Systems; chain copies: 2 (inferred, Fc chimera)
Description: as §2, §3

[11] = target: T1, rec-cMet (Recombinant Human HGF …); assay: ELONA; high binding; Table 2 misnumbers as SEQ 47; also SPR FIG. 11; details: tags: C-terminal HIEGRMD linker, human IgG Fc (100-330), 6xHis; R&D Systems; chain copies: 2 (inferred, Fc chimera)
Experimental: as §5, §6

[12] = target: T1, rec-cMet (Recombinant Human HGF …); assay: ELONA; high binding; 3' polyA20 hybridised to biotin-polyT; 20 mM Tris, 100 mM NaCl, 0.1 mM Mg acetate, 4 C; also SPR FIG. 11; details: tags: C-terminal HIEGRMD linker, human IgG Fc (100-330), 6xHis; R&D Systems; chain copies: 2 (inferred, Fc chimera)
Experimental: as §5, §6

T1 sequence (P08581 25-307, stated change not applied, chain 1 of 2): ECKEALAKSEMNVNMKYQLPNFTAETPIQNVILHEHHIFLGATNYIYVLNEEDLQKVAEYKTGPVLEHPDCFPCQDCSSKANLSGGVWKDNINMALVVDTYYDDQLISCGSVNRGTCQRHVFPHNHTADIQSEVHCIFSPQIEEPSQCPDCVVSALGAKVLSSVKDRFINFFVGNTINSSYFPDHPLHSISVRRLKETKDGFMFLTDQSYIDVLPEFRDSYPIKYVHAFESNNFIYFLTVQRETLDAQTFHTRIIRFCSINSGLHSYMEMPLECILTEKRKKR
T1 sequence (P08581 308-932, stated change not applied, chain 2 of 2): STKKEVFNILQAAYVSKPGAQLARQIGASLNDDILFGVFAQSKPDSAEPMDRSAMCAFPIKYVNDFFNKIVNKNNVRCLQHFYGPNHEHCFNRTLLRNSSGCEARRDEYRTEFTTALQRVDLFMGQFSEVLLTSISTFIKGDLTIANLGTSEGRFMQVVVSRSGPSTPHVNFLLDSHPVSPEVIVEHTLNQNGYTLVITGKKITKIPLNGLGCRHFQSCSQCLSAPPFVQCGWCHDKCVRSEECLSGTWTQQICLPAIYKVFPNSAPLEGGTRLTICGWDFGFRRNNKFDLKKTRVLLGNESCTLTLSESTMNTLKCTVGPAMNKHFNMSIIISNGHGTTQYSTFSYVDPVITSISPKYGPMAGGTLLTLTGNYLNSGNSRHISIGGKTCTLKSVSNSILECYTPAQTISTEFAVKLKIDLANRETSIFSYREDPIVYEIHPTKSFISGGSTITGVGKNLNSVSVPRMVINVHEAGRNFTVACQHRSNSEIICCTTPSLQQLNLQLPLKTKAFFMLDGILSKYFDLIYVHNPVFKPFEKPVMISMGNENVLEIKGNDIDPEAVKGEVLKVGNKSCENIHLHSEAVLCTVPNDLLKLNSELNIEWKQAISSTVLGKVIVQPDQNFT
rec-NGFR (Recombinant Human NGF R/TNFRSF16/Fc Chimera), sequence (P08138 29-250, change not shown): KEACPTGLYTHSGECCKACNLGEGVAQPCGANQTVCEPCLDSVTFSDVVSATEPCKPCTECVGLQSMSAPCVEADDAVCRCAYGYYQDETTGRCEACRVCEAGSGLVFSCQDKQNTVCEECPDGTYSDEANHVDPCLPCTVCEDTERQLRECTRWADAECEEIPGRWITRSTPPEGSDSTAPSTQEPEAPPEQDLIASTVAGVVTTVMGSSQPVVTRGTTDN

B1: g1-trA (ssRNA)
RNA: GGGCACUGAGAGUUUGACCAGCUAUUAAAUGGGUCGUGACUCAGUG
**Q.** With B1 as the binder, how does the Kd [1] read?
**A.** The Kd was 8.18 nM.

B2: g25 2'-F (ssRNA)
RNA: GGGACGCUCACGUACGCUAAUAGCAACAGUUCCCAGAGGUGAUCAGGCAGCCUUAAGACAUCAGUGCCUGGACGUGCAGU
modifications: 2'-F on all C and U
**Q.** Does B2 bind [2]?
**A.** Result: binds

B3: g9 (ssRNA)
RNA: GGGACGCUCACGUACGCUAAGAUGUCUCAAUUGGUCGUGAUUGUGCUGACCACACGAACCUCAGUGCCUGGACGUGCAGU
**Q.** Which results are given for B3?
**A.** binding result [3]: no binding; binding result [4]: binds

B4: g1-miniA (ssRNA)
RNA: GGGACUGAGAGUUUGACCAGCUAUUAAAUGGGUCGUGACUCAGU
**Q.** How did the Kd [5] turn out when B4 was run?
**A.** The Kd was 7.98 nM.

B5: g29 2'-F (ssRNA)
RNA: GGGACGCUCACGUACGCUAAACGAGCCGUGAUUGGGUUGGCAACCCUGCUUAUGUGAGGAUCAGUGCCUGGACGUGCAGU
modifications: 2'-F on all C and U
**Q.** Does B5 bind [2]?
**A.** Result: binds

B6: g2 (ssRNA)
RNA: GGGACGCUCACGUACGCUAAACCCUGGCGAUCUCCGGCCGGAUACGGGAGAACGAGGUACUCAGUGCCUGGACGUGCAGU
**Q.** What does the source list for B6?
**A.** binding result [3]: no binding; binding result [6]: binds

B7: g3 (ssRNA)
RNA: GGGACGCUCACGUACGCUAAGGGCGAAACUGUCGUGACACGGUUUGACAUGCCGGCCUUAUCAGUGCCUGGACGUGCAGU
**Q.** Does B7 bind [3]?
**A.** Result: no binding

**Q.** Does B7 bind [6]?
**A.** Result: binds

B8: g4 (ssRNA)
RNA: GGGACGCUCACGUACGCUAAUACCGUGAUUCGGGGUGGUAUCCGGUGGACAUCCAGGUCGUCAGUGCCUGGACGUGCAGU
**Q.** Does B8 bind [3]?
**A.** Result: no binding

**Q.** Does B8 bind [6]?
**A.** Result: binds

B9: g1-miniC (ssRNA)
RNA: GGGUGAGAGUUUGACCAGCUAUUAAAUGGGUCGUGACUCA
**Q.** Does B9 bind [5]?
**A.** Result: binds

B10: g6 (ssRNA)
RNA: GGGACGCUCACGUACGCUAAUCCAGGUGUGGCGAGCCACUGUAAGAGUCGCCGUGAGGAUUCAGUGCCUGGACGUGCAGU
**Q.** Does B10 bind [3]?
**A.** Result: no binding

**Q.** Does B10 bind [7]?
**A.** Result: binds

B11: g5 (ssRNA)
RNA: GGGACGCUCACGUACGCUAAGCCCAACGAACAUUUUGAGUUUCCAGGCAGCUCAUAGACAUCAGUGCCUGGACGUGCAGU
**Q.** Does B11 bind [8]?
**A.** Result: binds

**Q.** Does B11 bind [3]?
**A.** Result: no binding

B12: g7 (ssRNA)
RNA: GGGACGCUCACGUACGCUAACUUGAAGUCAAGGGUAGAGUGACCAUGCAGCUCGUAGACAUCAGUGCCUGGACGUGCAGU
**Q.** What does the source list for B12?
**A.** binding result [3]: no binding; binding result [9]: binds

B13: g38 2'-F (ssRNA)
RNA: GGGACGCUCACGUACGCUAACCAGGAGCAUUAGACCGGGGAAAGAAGGAGUACCGUCUGGUCAGUGCCUGGACGUGCAGU
modifications: 2'-F on all C and U
**Q.** Does B13 bind [10]?
**A.** Result: binds

B14: g8 (ssRNA)
RNA: GGGACGCUCACGUACGCUAAGGGCACUUAAAACCAGACCGUGAUUUGCGGUUGGUCUCGCUCAGUGCCUGGACGUGCAGU
**Q.** What does the source list for B14?
**A.** binding result [3]: no binding; binding result [11]: binds

B15: g1-miniB (ssRNA)
RNA: GGGCUGAGAGUUUGACCAGCUAUUAAAUGGGUCGUGACUCAG
**Q.** B15 was tested. Which Kd [5] did it give?
**A.** The Kd was 26.4 nM.

B16: g1 (ssRNA)
RNA: GGGACGCUCACGUACGCUAAACACACUGAGAGUUUGACCAGCUAUUAAAUGGGUCGUGACUCAGUGCCUGGACGUGCAGU
**Q.** Does B16 bind [3]?
**A.** Result: no binding

**Q.** Does B16 bind [12]?
**A.** Result: binds
